Results taken from the DeepSol protein solubility set.

assay: soluble on expression in E. coli; label from the status in PepcDB or PDB records

Soluble on expression in E. coli, not soluble:
MGSDKIHHHHHHMSQTMMLIEKSSHCVSWYDTETGALQGRLALPDFPHEFVVDQDNHYAYVGHYGVQNSGVEGTDGRSVIVIDIRKQEIVHRYDLGEHARPHGISLDAQGRLYVLSEWSGHLLVKENPRAFDQGWDHVTPVGGEKPHLFALTGDGRTAYSMNLNSGDVTVLDPYDPTRIPVSIKTGEKPEGRCLREEAGVLYTSQRISNTVAVVDTKTLQVQRIFPTPQDPCRVYYDAKRNRLVTMNHHGGSFSVFDEATGEMLHEQKTPANPLALCIDDEAAYAYIAIDCEQVQRFNLDTFEVVQTFDTGKEPDVMVILPEGYSKHWEVNA
MGSDKIHHHHHHMSRILITCAITGSIHTPSMSPYLPVTADEITQQAVDAADAGAAILHLHARDPETGRPSAEIGHFMGFLPRIKQSCEAVLNLSTGGSAVMTLDQRLAAPKQAAPEMCSLNMGTMNFALYPAADRISDWKHDWEEPFLRGSDDLVFKNTPRDMALILGEMGTKRGARFEFEVYDVGHLYMLRHFVDRGLVQGPLFIQFVFGVLGGIGPDPENLMHMKTVADKLFGQDYLFSVLAAGRHQIPLVTMAAAMGGHVRVGLEDSLMISRGVLARSNAEQVRKIRRIVEDLGREVASPGEARAMLGLKGADRTAF
MGSDKIHHHHHHMSRRQHFAKVTPLLHRHGDYFVFIGFDYGTANCSVAVMRDGKPHLLKMENDSTLLPSMLCAPTREAVSEWLYRHHDVPADDDETQALLRRAIRYNREEDIDVTAKSVQFGLSSLAQYIDDPEEVWFVKSPKSFLGASGLKPQQVALFEDLVCAMMLHIRQQAQAQLPEAITQAVIGRPINFQGLGGDEANTQAQGILERAAKRAGFRDVVFQYEPVAAGLDYEATLQEEKRVLVVDIGGGTTDCSLLLMGPQWRSRLDREASLLGHSGCRIGGNDLDIALAFKNLMPLLGMGGETEKGIALPILPWWNAVAINDVPAQSDFYSSANGRLLNDLVRDAREPEKVALLQKVWRQRLSYRLVRSAEECKIALSSVAETRASLPFISNELATLISQRGLESALSQPLTRILEQVQLALDNAQEKPDVIYLTGGSARSPLIKKALAEQLPGIPIAGGDDFGSVTAGLARWAEVVFR
MGSDKIHHHHHHMSRVGIPRSLFYYYYYPLWKSFFSDLGVEILTSAPSNRHTVERGIELAVDETCFPIKVYLGHVAELCREELDYLFIPRLVSVEARSYICPKFMGLPDIVRALIKETPPLIDITVDLSRDEKCFKKDIIRVGRLFTRQASRIQLAYQHGCEELRLCRSLASQGFTMEEAIKIWEGGAMEAEPETDLNIGVLGHGYSLYDERISMNLVKRLRAMNCKVLLPEHLGSEVVEAEAATVPKRVFWTLGRKMLGSALHLSQREDVDGIIYLACFGCGPDSLIGEIIERKVRDCKPFILLTVDEHSGEAGIITRLEAFCDMLRRRRNCGSESKLSPYGVSLHSFENTV
MGSDKIHHHHHHMSSDVQKGDNLETPGARDLLLQTASNIMREGDVVDISLSELSLRSGLNSALVKYYFGNKAGLLKALLDRDMENIVKSVDALLAKDDMSPEAKLRRHISKCIDTYYDYPYLNRLLMRLVRDSDEAEAKRIADQYLLPLHRAYNRFIGEGVKAGVFRPINPQLFYFTVTGAADRFFSARLVLKHCFDQDTLTEQLRDSYREHTVDFIMAGILAH
MGSDKIHHHHHHMSSLQILQGTFRLSDTKTLQLPQLTLNAGDSWAFVGSNGSGKSALARALAGELPLLKGERQSQFSHITRLSFEQLQKLVSDEWQRNNTDMLGPGEDDTGRTTAEIIQDEVKDAPRCMQLAQQFGITALLDRRFKYLSTGETRKTLLCQALMSEPDLLILDEPFDGLDVASRQQLAERLASLHQSGITLVLVLNRFDEIPEFVQFAGVLADCTLAETGAKEELLQQALVAQLAHSEQLEGVQLPEPDEPSARHALPANEPRIVLNNGVVSYNDRPILNNLSWQVNPGEHWQIVGPNGAGKSTLLSLVTGDHPQGYSNDLTLFGRRRGSGETIWDIKKHIGYVSSSLHLDYRVSTTVRNVILSGYFDSIGIYQAVSDRQQKLVQQWLDILGIDKRTADAPFHSLSWGQQRLALIVRALVKHPTLLILDEPLQGLDPLNRQLIRRFVDVLISEGETQLLFVSHHAEDAPACITHRLEFVPDGGLYRYVLTKIY
MGSDKIHHHHHHMSSVSLQDFDAERIGLFHEDIKRKFDELKSKNLKLDLTRGKPSSEQLDFADELLALPGKGDFKAADGTDVRNYGGLDGIVDIRQIWADLLGVPVEQVLAGDASSLNIMFDVISWSYIFGNNDSVQPWSKEETVKWICPVPGYDRHFSITERFGFEMISVPMNEDGPDMDAVEELVKNPQVKGMWVVPVFSNPTGFTVTEDVAKRLSAMETAAPDFRVVWDNAYAVHTLTDEFPEVIDIVGLGEAAGNPNRFWAFTSTSKITLAGAGVSFFLTSAENRKWYTGHAGIRGIGPNKVNQLAHARYFGDAEGVRAVMRKHAASLAPKFNKVLEILDSRLAEYGVAQWTVPAGGYFISLDVVPGTASRVAELAKEAGIALTGAGSSYPLRQDPENKNLRLAPSLPPVEELEVAMDGVATCVLLAAAEHYAN
MGSDKIHHHHHHMSSYVVSQEDVKNFLNLPSMNDQEGISFAYATDPDALAKLIPAPLKLVAPVVCGYVVHMGKPSFGGPYLEQTLFALVSYKDKMMGSYPLTLLLHGPGAEAGLVAGREGAGIPKKLADHIELRRNDNSASATVERHGKTLLSVDWEAGDVNDPSILQTFGSQFALNKESEMNSFFFTHDLVQDKQGANHFENVELVATQMKSLADRVEPGKLSIQLASTEDDPFGELPVLKPLGAMWYHFATSTMFNTLHLEQVDADKTAPYLITGRYDRSMMNPLATTYII
MGSDKIHHHHHHMSTDFKKRNVFFSPPDMTETETRLVVEAIMSGWITTGPKTKEFEKKISAYVHTDKTVCLNSATAAMELALRLIGVGPEDEVIVPAYTYTASASVTQHVGCHLVMVDSNEENQQMDLQKLAEAITERTKVIVPVDLGGVVCEYDKILEILEQKKGLFRPTNELQKKIGRVIISSDCAHAFGSEWKGKMAGEIGDFSSFSFHAVKNLTTAEGGALTWHLPFGNEPIIMDIDTTIPVFEGETWNEFLYRKCQLFSLHGQNKDALAKTKLGSWEYDVIGPWYKCNMTDIMASLGLAQMERYDTMLQKRQKYVERFNEAFKELNVAVLDHKGAEHCSSHHLYIIRLLGKTREQVNDVITKMAERGIATNVHYKPLPMMTAYKTLGFDIKNFPNAYKMFENTMTLPLNTKMTEEDVEYVIENFVDIVKSL
MGSDKIHHHHHHMSTFIFPGDSFPVDPTTPVKLGPGIYCDPNTQEIRPVNTGVLHVSAKGKSGVQTAYIDYSSKRYIPSVNDFVIGVIIGTFSDSYKVSLQNFSSSVSLSYMAFPNASKKNRPTLQVGDLVYARVCTAEKELEAEIECFDSTTGRDAGFGILEDGMIIDVNFNFARQLLFNNDFPLLKVLAAHTKFEVAIGLNGKIWVKCEELSNTLACYRTIMECCQKNDTAAFKDIAKRQFKEILTVKEE
MGSDKIHHHHHHMSTILLPKTQHLVVFQEVIRSGSIGSAAKELGLTQPAVSKIINDIEDYFGVELVVRKNTGVTLTPAGQLLLSRSESITREMKNMVNEISGMSSEAVVEVSFGFPSLIGFTFMSGMINKFKEVFPKAQVSMYEAQLSSFLPAIRDGRLDFAIGTLSAEMKLQDLHVEPLFESEFVLVASKSRTCTGTTTLESLKNEQWVLPQTNMGYYSELLTTLQRNGISIENIVKTDSVVTIYNLVLNADFLTVIPCDMTSPFGSNQFITIPVEETLPVAQYAAVWSKNYRIKKAASVLVELAKEYSSYNGCRRRQLIEVG
MGSDKIHHHHHHMSTLRLLISDSYDPWFNLAVEECIFRQMPATQRVLFLWRNADTVVIGRAQNPWKECNTRRMEEDNVRLARRSSGGGAVFHDLGNTCFTFMAGKPEYDKTISTSIVLNALNALGVSAEASGRNDLVVKTVEGDRKVSGSAYRETKDRGFHHGTLLLNADLSRLANYLNPDKKKLAAKGITSVRSRVTNLTELLPGITHEQVCEAITEAFFAHYGERVEAEIISPNKTPDLPNFAETFARQSSWEWNFGQAPAFSHLLDERFTWGGVELHFDVEKGHITRAQVFTDSLNPAPLEALAGRLQGCLYRADMLQQECEALLVDFPEQEKELRELSAWMAGAVR
MGSDKIHHHHHHMSTSVLYHAFNLKGITYRATRFTGDVIEYFADVKEEYIRCPKCGQRKFTFKGQKTRSFHLGPMGRKRCFLVLSLHRIKCNTCDTLWWPDLPFMVGKHRFARSFALIVLDLLRFGTIRWVADYLGVGWDMIKEIHKLKLQRLYRNIPLHKVRYIGIDEFSIRKGHEYMTTVMDLSEGRILYATEGKGKEGILPFLKKLARKGKKLRAVAMDMGISFFSAVREALPNIDVVFDRYHIMALMNQGIENLRRNHQKELDDTGKQTLKGNRFLLLRNYDSLKPDHKERLDALMQANQPLFVMHSMKEQLRLFWEIPEYAQAVTFLDTWCKDAMLSGIKELVKVAKTLSGYRTAILNYFKHHITNAALEGTNNKIKTLKRQAYGFRDMEYFKLRLYHLHTQRYSLTG
MGSDKIHHHHHHMSVAHENARRIISDILGKQNIERVWFVGCGGSLTGFWPGKYFLDCEASKLAVGYITSNEFVHATPKALGKNSVVILASQQGNTAETVAAARVAREKGAATIGLVYQPDTPLCEYSDYIIEYQWARYPETVDPAQQKAAYSLWLALEILAQTEGYAQYDELVSAFGRFSDVVHGAQRQVQEDAQRFAAEWKDEKVVYMMGSGPSFGAAHQESICILLEMQWINSASIHSGEYFHGPFEITEPGTPFILLQSSGRTRPLDDRAIRFIERYQGKLQLIDADKLGIQDLSTDVGEYFCGLLHNCVLDVYNLALATARNHPLTTRRYMWKVEY
MGSDKIHHHHHHMSVGEAMDTEVRAAAQAVCLAFNENPEAVEPRVQAAIAAAAARINRYPFDAEPRVMRKLAEHFSCPEDNLMLVRGIDECFDRISAEFSSMRFVTAWPGFDGYRARIAVSGLRHFEIGLTDDLLLDPNDLAQVSRDDCVVLANPSNPTGQALSAGELDQLRQRAGKLLIDETYVDYSSFRARGLAYGENELVFRSFSKSYGLAGLRLGALFGPSELIAAMKRKQWFCNVGTLDLHALEAALDNDRAREAHIAKTLAQRRRVADALRGLGYRVASSEANFVLVENAAGERTLRFLRERGIQVKDAGQFGLHHHIRISIGREEDNDRLLAALAEYSDHS
MGSDKIHHHHHHMSVLQELTKKKYSSLKTMFDDKYCPTFVYSILDQTIPGAVYADDQTFPKSFFIGTESGIYFIAGDQGNRDFHDFIAGYYEEQVKSSKRFTLFSSSDTWDSVLKPILKDDLNQMRRAAFSYQPKSFKKTLQLPKGLVLKRIDEDIISHSTAFNSAYYEEYWNSVSQFASKGFGFAVLHGNHVVSECTSIFLGHNRAEMDIYTLEEYRGLGLAYCVANRFIAFCMENGIVPSWDCDICNNSSIALAAKLGFKTVTEYTIYYSG
MGSDKIHHHHHHMSVPLRAVQLTEPSLFLQEHPEVQFVDLLISDMNGVVRGKRIERNSLPKVFEKGINLPASLFALDITGSTVESTGLGLDIGDADRICYPIPGTLSMEPWQKRPTAQLLMTMHELEGEPFFADPREVLRQVVARFTEMELTIVAAFELEFYLIDQENVNGRPQPPRSPISGKRPQSVQVYSIDDLDEYVECLQDIIDGARAQGIPADAIVAESAPAQFEVNLHHVADPMKACDYAVLLKRLIKNIAYDHEMDTTFMAKPYPGQAGNGLHVHISLLDKHGNNIFTSEDPEQNAALRHAIGGVLETLPASMAFLCPNVNSYRRFGSQFYVPNAPSWGLDNRTVALRVPTGSPDAVRLEHRVAGADANPYLLLASVLAGVHHGLTNKVEPGAPIEGNSYEQLEPSLPNNLRDALRELDDSEILAKYIDPKYIDIFVACKESELEEFEYSISDLEYNWYLHTV
MGSDKIHHHHHHMSVSPEFTRGKIHDVVVKPLGKFLDERGWLAELFRSDETDPATMPVMAYVSMTRPGIVRGPHEHVDQTDWFCFIGPSNFKVYLWDSRPDSPTHGVKQTLFAGIDAPMSVIVPPGVVHAYKNVGGVDGIVFNAPNRLYAGEGKSSPVDEIRHEDVAGSPFILD
